This note sets out measurements from publication PMC4182809.

The target in the test is plastidic glutamine synthetase (GS2), spinach, 420 kDa stromal holoenzyme (spinach (Spinacia oleracea), endogenous in leaf chloroplasts). Briefly: native gel or EMSA; BN-PAGE (4-16% Bis-Tris gradient gel, 4°C) of stroma and thylakoid proteins of chloroplasts, western blot, with 2D SDS-PAGE; extraction in 20 mM Hepes-KOH pH 7.5, or potassium phosphate pH 6 or pH 8 with or without 0.1 M NaCl, 10 mM DTT or 10 mM ascorbic acid.

As a reminder, the stoichiometry N is a count of units in the complex or per binding partner. As for “plastidic glutamine synthetase (GS2), spinach, 420 kDa stromal holoenzyme”, the stoichiometry N amounted to 10.
